Several values for one entry are separate records, joined by “and”; a condition that tells them apart may be missing. Equal values may be shown once.
Target: the molecule itself
Experiment: SEC; oligomeric forms of the separately purified proteins; Superdex 200 Increase 10/300 GL, 20 mM HEPES pH 7.5, 150 mM NaCl, 1 mM DTT (Fig. S1, A and B)

B1: Get3(D57N), Saccharomyces cerevisiae (enzyme, S. cerevisiae, UniProt Q12154 1-354, looked up)
chain: MDLTVEPNLHSLITSTTHKWIFVGGKGGVGKTTSSCSIAIQMALSQPNKQFLLISTNPAHNLSDAFGEKFGKDARKVTGMNNLSCMEIDPSAALKDMNDMAVSRANNNGSDGQGDDLGSLLQGGALADLTGSIPGIDEALSFMEVMKHIKRQEQGEGETFDTVIFDTAPTGHTLRFLQLPNTLSKLLEKFGEITNKLGPMLNSFMGAGNVDISGKLNELKANVETIRQQFTDPDLTTFVCVCISEFLSLYETERLIQELISYDMDVNSIIVNQLLFAENDQEHNCKRCQARWKMQKKYLDQIDELYEDFHVVKMPLCAGEIRGLNNLTKFSQFLNKEYNPITDGKVIYELEDKE
notes: Get3, S. cerevisiae, UniProt Q12154, full length, with D57N; Purified in dimeric and tetrameric forms; the dimer was used to form the complex with Get4/5; ATP and MgCl2 were present in the complex, cryo-EM and MST samples; also called D57N variant; ATPase-deficient D57N variant; source: E. coli Rosetta (DE3), purified (Ni-NTA, SEC)
stoichiometry N: 2 and 4
